Assay results published in US20060292657A1, “Phex substrates and methods using same” (priority 2003, published 2006).

How the values were obtained:
Assay in all cases: Kinetic parameters for hydrolysis of internally quenched fluorogenic peptides by secPHEX
Type in all cases: biochemical, human
Details in all cases: other: 37° C., 10 mM Bis-Tris buffer pH 5.5, 150 mM NaCl
[1] = substrate: CC(C)C[C@H](NC(=O)c1ccccc1N)C(=O)N[C@@H](CCC(=O)O)C(=O)N[C@@H](CC(C)C)C(=O)N[C@@H](CC(=O)O)C(=O)N[C@@H](CO)C(=O)N[C@@H](CCCNC(=N)N)C(=O)N[C@@H](CCC(N)=O)C(=O)NCCNc1ccc([N+](=O)[O-])cc1[N+](=O)[O-]
Protocol: (§1) The human recombinant secPHEX was obtained following the procedure previously described (17, WO 00/50580). Purified secPHEX concentration was determined using the Bradford method (DC protein assay kit; Bio-Rad, Mississauga, ON, Canada). Membrane-bound recombinant human PHEX was expressed in LLC-PK1 cells (17, (WO 00/50580)) and membranes were prepared essentially as described by Guo et al. (34). Briefly, transfected cells resuspended in lysis buffer (150 mM NaCl, 20 mM Tris.HCl, pH 7.6) were disrupted by sonication. Cell debris were removed by centrifugation at 300 g for 15 min at 4 °C. Membranes were collected by centrifugation at 30,000 g for 50 min and solubilized for 2h with 1% n-dodecyl-β-D-maltoside in lysis buffer. Insoluble material was pelleted by centrifugation at 10,000 g for 15 min and protein concentrations of the supernatant determined using the Bradford method described above. PHEX amounts were evaluated by immunoblotting as described previously (17). NEP expression and purification were performed as described previously (36).
(§2) The hydrolysis of the IQFPs, at 37° C., in 10 mM Bit-Tris buffer pH 5.5 (0.35 to 1.0 ml final volume) containing 150 mM NaCl, was continuously followed measuring the fluorescence at γem=420 nm and γex=320 nm in a Hitachi F-2000™ spectrofluorometer. The cuvefte containing the buffer and the substrate was placed in a thermostatically controlled cell compartment for 5 min before the addition of the enzyme and the increase in fluorescence with time was continuously recorded for 5-10 min. The enzyme concentration for initial rate determination was chosen at a level intended to hydrolyze less than 5% of the substrate present. The slope was converted into micromoles of substrate hydrolyzed per min based on a calibration curve obtained from complete hydrolysis of each peptide. The inner-filter effect was corrected using an empirical equation as previously described (43). The kinetic parameters Km and kcat were calculated by the non-linear regression data analysis Grafit program (42). The kcat/Km values were calculated as the ratio of these two determined parameters. The apparent second order rate constant kcat/Km (*kIt/Km) was determined under pseudo first-order conditions, where [S]<<Km. These determinations were performed in two different substrate concentrations and the errors were less than 5% for any obtained value.
(§3) To determine the position of cleavage in peptides of the IQFPs combinatorial libraries, the products resulting from hydrolysis by secPHEX were submitted to N-terminal amino acid sequencing in a PPSQ-23protein sequencer (Shimadzu Tokyo, Japan). The scissile bonds in the IQFPs secPHEX substrates derived from PTHrP107-139, FGF-23and MEPE were determined by amino acid sequencing and by MALDI-TOF™ mass spectrometry (TofSpec-E™, Micromass, Manchester, U.K.) after isolation of the fragments resulting from the hydrolysis by secPHEX by analytical HPLC.
(§4) The assays were performed at 37° C., in 10 mM Bis-Tris buffer pH 5.5, containing 150 mM NaCl. Measurements were made as described under the heading “Experimental Procedures” above. Cleavage sites are indicated as arrows (↓). The standard deviations of the kinetic constants were less than 5%.
(§5) The assays were performed at 37° C., in 10 mM Bis-Tris buffer pH 5.5, containing 150 mM NaCl. Measurements were made as described under the heading “Experimental Procedures” above. Cleavage sites are indicated by arrows (↓). The standard deviations of the kinetic constants were less than 5%.
(§6) The assays were. performed at 37° C., in 10 mM Bis-Tris buffer pH 5.5, containing 150 mM NaCl. Measurements were made as described under the heading “Experimental Procedures” above. Cleavage sites are indicated by arrows (↓). The standard deviations of the kinetic constants were less than 5%.
(§7) The assays were performed at 37° C., in 10 mM Bis-Tris buffer pH 5.5, containing 150 mM NaCl. Measurements were made as described under “Experimental Procedures”. […]

[2] = substrate: CSCC[C@H](NC(=O)[C@H](CC(C)C)NC(=O)c1ccccc1N)C(=O)N[C@@H](CCSC)C(=O)N[C@@H](CC(=O)O)C(=O)N[C@@H](Cc1ccccc1)C(=O)N[C@@H](CCCNC(=N)N)C(=O)NCC(=O)N[C@@H](CCC(N)=O)C(=O)NCCNc1ccc([N+](=O)[O-])cc1[N+](=O)[O-]
Protocol: as §1, §2, §3, §4, §5, §6, §7

[3] = substrate: CSCC[C@H](NC(=O)[C@H](CCC(=O)O)NC(=O)[C@H](CC(N)=O)NC(=O)c1ccccc1N)C(=O)N[C@@H](CC(=O)O)C(=O)N[C@@H](CO)C(=O)N[C@@H](Cc1ccccc1)C(=O)N[C@@H](CC(N)=O)C(=O)N[C@@H](CCC(N)=O)C(=O)NCCNc1ccc([N+](=O)[O-])cc1[N+](=O)[O-]
Protocol: as §1, §2, §3, §4, §5, §6, §7

[4] = substrate: C[C@H](NC(=O)[C@H](CC(=O)O)NC(=O)[C@H](CCC(=O)O)NC(=O)[C@H](CO)NC(=O)[C@H](CCCNC(=N)N)NC(=O)c1ccccc1N)C(=O)NCC(=O)N[C@@H](Cc1ccccc1)C(=O)N[C@@H](CCC(N)=O)C(=O)NCCNc1ccc([N+](=O)[O-])cc1[N+](=O)[O-]
Protocol: as §1, §2, §3, §4, §5, §6, §7

[5] = substrate: C[C@H](NC(=O)[C@H](CCC(N)=O)NC(=O)[C@H](CO)NC(=O)[C@H](CC(=O)O)NC(=O)[C@H](CCCNC(=N)N)NC(=O)[C@H](CCC(N)=O)NC(=O)[C@@H]1CCCN1C(=O)CNC(=O)c1ccccc1N)C(=O)N[C@@H](CCC(N)=O)C(=O)NCCNc1ccc([N+](=O)[O-])cc1[N+](=O)[O-]
Protocol: as §1, §2, §3, §4, §5, §6, §7

B1: human recombinant secPHEX (Homo sapiens) (protein)
chain: SLQAKQEYCLKPECIEAAAAILSKVNLSVDPCDNFFRFACDGWISNNPIPEDMPSYGVYPWLRHNVDLKLKELLEKSISRRRDTEAIQKAKILYSSCMNEKAIEKADAKPLLHILRHSPFRWPVLESNIGPEGVWSERKFSLLQTLATFRGQYSNSVFIRLYVSPDDKASNEHILKLDQATLSLAVREDYLDNSTEAKSYRDALYKFMVDTAVLLGANSSRAEHDMKSVLRLEIKIAEIMIPHENRTSEAMYNKMNISELSAMIPQFDWLGYIKKVIDTRLYPHLKDISPSENVVVRVPQYFKDLFRILGSERKKTIANYLVWRMVYSRIPNLSRRFQYRWLEFSRVIQGTTTLLPQWDKCVNFIESALPYVVGKMFVDVYFQEDKKEMMEELVEGVRWAFIDMLEKENEWMDAGTKRKAKEKARAVLAKVGYPEFIMNDTHVNEDLKAIKFSEADYFGNVLQTRKYLAQSDFFWLRKAVPKTEWFTNPTTVNAFYSASTNQIRFPAGELQKPFFWGTEYPRSLSYGAIGVIVGHEFTHGFDNNGRKYDKNGNLDPWWSTESEEKFKEKTKCMINQYSNYYWKKAGLNVKGKRTLGENIADNGGLREAFRAYRKWINDRRQGLEEPLLPGITFTNNQLFFLSYAHVRCNSYRPEAAREQVQIGAHSPPQFRVNGAISNFEEFQKAFNCPPNSTMNRGMDSCRLW
notes: pure soluble form of PHEX (secPHEX); made in house
Work on B1 yielded a Km [1] of 0.9 µM, a kcat [1] of 0.05 s⁻¹ and a kcat/Km [1] of 55500 M⁻¹ s⁻¹. It also gave a Km [2] of 17.0 µM, a kcat [2] of 0.8 s⁻¹ and a kcat/Km [2] of 45000 M⁻¹ s⁻¹. The Km [3] was 38.0 µM, the kcat [3] was 0.3 s⁻¹ and the kcat/Km [3] was 7900 M⁻¹ s⁻¹. For the same protein, the Km [4] was 4.1 µM, the kcat [4] was 0.06 s⁻¹ and the kcat/Km [4] was 14600 M⁻¹ s⁻¹. It also gave a Km [5] of 47.0 µM, a kcat [5] of 0.2 s⁻¹ and a kcat/Km [5] of 4300 M⁻¹ s⁻¹.
